Reference: paper PMC6491619, “Development and application of a high-content virion display human GPCR array” (Nature Communications, 2019)
No end group written: not given here.

Legend:
Experiment in all cases: virion-oscillator (plasmonic imaging, SPR read-out); VirD-GPCR virions tethered to a gold chip by a PEG linker and driven by a sinusoidal potential (5 Hz); label-free SRIF-14 perfused at several doses; first-order kinetics model
Settings in all cases: one partner purified
VirD-NTSR1 = biological target: T1, VirD-NTSR1 (human, UniProt P30989 1-418)
T1 construct: source: recombinant HSV-1 (UL27 locus); virions from infected cells (in most cases Vero), purified by sucrose cushion; also on infected Vero cells; not shown: V5, C-terminal, kept

VirD-KISS1R = biological target: T2, VirD-KISS1R (human, UniProt Q969F8 1-398)
T2 construct: source: recombinant HSV-1 (UL27 locus); virions from infected cells (in most cases Vero), purified by sucrose cushion; also on infected Vero cells; not shown: V5, C-terminal, kept

VirD-GABBR2 = biological target: T3, VirD-GABBR2 (human, UniProt O75899 42-941)
T3 construct: source: recombinant HSV-1 (UL27 locus); virions from infected cells (in most cases Vero), purified by sucrose cushion; also on infected Vero cells; not shown: V5, C-terminal, kept
T3 sequence: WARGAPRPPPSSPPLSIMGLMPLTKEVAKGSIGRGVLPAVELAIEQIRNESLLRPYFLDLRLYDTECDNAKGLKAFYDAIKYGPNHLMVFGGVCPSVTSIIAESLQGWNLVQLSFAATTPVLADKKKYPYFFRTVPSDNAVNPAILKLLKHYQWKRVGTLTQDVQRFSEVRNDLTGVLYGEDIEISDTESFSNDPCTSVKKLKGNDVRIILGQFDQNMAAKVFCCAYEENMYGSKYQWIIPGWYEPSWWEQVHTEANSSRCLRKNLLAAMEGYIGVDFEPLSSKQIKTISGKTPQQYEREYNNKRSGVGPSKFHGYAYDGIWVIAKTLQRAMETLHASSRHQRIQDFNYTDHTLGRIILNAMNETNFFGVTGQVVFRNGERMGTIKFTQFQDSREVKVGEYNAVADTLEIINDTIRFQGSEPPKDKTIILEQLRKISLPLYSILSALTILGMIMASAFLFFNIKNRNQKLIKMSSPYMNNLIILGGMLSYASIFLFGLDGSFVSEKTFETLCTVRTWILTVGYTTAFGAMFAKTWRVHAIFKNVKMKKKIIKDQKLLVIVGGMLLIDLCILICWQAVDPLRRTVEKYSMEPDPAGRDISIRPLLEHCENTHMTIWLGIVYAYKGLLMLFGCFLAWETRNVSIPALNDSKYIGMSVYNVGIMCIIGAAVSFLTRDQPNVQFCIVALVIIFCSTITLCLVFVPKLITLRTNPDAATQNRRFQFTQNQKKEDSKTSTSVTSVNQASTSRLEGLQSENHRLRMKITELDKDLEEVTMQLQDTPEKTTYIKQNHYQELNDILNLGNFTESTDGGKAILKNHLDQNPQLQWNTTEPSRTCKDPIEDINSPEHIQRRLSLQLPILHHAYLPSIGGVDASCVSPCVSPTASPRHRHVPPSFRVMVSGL

T2 sequence (Q969F8 whole entry): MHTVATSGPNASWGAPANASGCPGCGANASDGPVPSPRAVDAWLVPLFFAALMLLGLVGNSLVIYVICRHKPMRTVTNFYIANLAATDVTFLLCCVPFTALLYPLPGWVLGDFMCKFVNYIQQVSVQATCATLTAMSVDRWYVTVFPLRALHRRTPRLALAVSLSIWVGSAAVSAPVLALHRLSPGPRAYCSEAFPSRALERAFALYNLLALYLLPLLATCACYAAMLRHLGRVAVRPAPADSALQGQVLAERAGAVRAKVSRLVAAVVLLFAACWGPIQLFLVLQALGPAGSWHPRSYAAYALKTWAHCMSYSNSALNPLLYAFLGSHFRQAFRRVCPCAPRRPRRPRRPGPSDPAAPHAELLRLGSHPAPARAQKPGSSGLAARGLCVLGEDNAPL
T1 sequence (P30989 whole entry): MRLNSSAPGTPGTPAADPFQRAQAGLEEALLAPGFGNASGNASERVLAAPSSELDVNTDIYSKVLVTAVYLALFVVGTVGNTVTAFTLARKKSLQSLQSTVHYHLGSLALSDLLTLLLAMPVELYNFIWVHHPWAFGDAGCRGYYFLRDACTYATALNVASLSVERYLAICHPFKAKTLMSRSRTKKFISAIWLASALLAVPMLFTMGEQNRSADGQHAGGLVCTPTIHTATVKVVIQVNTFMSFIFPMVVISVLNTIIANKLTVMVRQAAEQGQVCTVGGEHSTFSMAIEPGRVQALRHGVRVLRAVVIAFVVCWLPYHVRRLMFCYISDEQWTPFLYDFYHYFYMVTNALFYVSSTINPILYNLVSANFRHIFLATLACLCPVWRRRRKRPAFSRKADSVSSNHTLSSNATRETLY

B1: somatostatin-14 (SRIF-14), unlabeled (peptide)
peptide: AGCKNFFWKTFTSC
modifications: not fully specified (bridges); ends and bridges not checked
notes: somatostatin-14 (SRIF-14), cut product of the somatostatin precursor; also called cold SRIF-14; SIRF-14; source: bought: AnaSpec (peptide)
VirD-NTSR1
  Kd: 2600 nM
VirD-KISS1R
  Kd: 25000 nM
VirD-GABBR2
  Kd: 400 nM
